Test results taken from publication PMC11408855, “The structure of the SufS–SufE complex reveals interactions driving protected persulfide transfer in iron-sulfur cluster biogenesis” (The Journal of Biological Chemistry, 2024).
Positions count from the first letter of the chain named. Names may count otherwise.

Key:
Conditions in all cases: both partners purified
[1] = biological target: T1, EcSufS, C-terminal his-tagged (wild type) (Escherichia coli, UniProt P77444 1-406, PLP (pyridoxal 5'-phosphate) cofactor); experiment: fluorescence polarisation; 100 nM BODIPY-FL-labeled EcSufE titrated with EcSufS; 50 mM Mops pH 8.0, 150 mM NaCl, 0.1 mg/ml bovine serum albumin, 25 °C, 30 min; presence of 500 μM cysteine; apparent KD
T1 construct: EcSufS, cysteine desulfurase SufS of Escherichia coli, UniProt P77444; the gene was cloned; also called WT EcSufS; cysteine desulfurase SufS; source: E. coli BL21(DE3)Δsuf, pET44, autoinduction, purified (Ni2+ HisTrap HP); not shown: His tag, C-terminal, kept
T1 sequence: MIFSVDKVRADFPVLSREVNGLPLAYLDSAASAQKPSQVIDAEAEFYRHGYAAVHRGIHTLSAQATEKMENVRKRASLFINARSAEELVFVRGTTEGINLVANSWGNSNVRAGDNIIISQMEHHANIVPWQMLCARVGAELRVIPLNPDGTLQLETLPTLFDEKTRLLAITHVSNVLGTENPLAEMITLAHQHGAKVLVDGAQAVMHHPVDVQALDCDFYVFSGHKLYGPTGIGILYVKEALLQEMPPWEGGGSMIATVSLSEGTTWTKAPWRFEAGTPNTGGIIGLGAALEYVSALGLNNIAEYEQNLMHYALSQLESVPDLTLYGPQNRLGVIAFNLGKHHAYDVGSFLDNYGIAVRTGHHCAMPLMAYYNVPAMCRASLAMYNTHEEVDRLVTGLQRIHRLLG

[2] = biological target: T1, EcSufS, C-terminal his-tagged (wild …); experiment: fluorescence polarisation; 100 nM BODIPY-FL-labeled EcSufE titrated with EcSufS; 50 mM Mops pH 8.0, 150 mM NaCl, 0.1 mg/ml bovine serum albumin, 25 °C, 30 min; absence of cysteine; apparent KD
[3] = biological target: T2, Y345A EcSufS, C-terminal his-tagged (Escherichia coli, UniProt P77444 1-406, Y345A, PLP (pyridoxal 5'-phosphate) cofactor); experiment: as above
T2 construct: EcSufS of Escherichia coli, UniProt P77444, with Y345A; also called Y345A SufS; source: E. coli BL21(DE3)Δsuf, pET44, autoinduction, purified (Ni2+ HisTrap HP); not shown: His tag, C-terminal, kept
T2 sequence: T1 sequence with Y345A

[4] = biological target: T3, S349A EcSufS, C-terminal his-tagged (Escherichia coli, UniProt P77444 1-406, S349A, PLP (pyridoxal 5'-phosphate) cofactor); experiment: as above
T3 construct: EcSufS of Escherichia coli, UniProt P77444, with S349A; also called S349A SufS; source: E. coli BL21(DE3)Δsuf, pET44, autoinduction, purified (Ni2+ HisTrap HP); not shown: His tag, C-terminal, kept
T3 sequence: T1 sequence with S349A

[5] = biological target: T4, F350A EcSufS, C-terminal his-tagged (Escherichia coli, UniProt P77444 1-406, F350A, PLP (pyridoxal 5'-phosphate) cofactor); experiment: as above
T4 construct: EcSufS of Escherichia coli, UniProt P77444, with F350A; also called F350A SufS; source: E. coli BL21(DE3)Δsuf, pET44, autoinduction, purified (Ni2+ HisTrap HP); not shown: His tag, C-terminal, kept
T4 sequence: T1 sequence with F350A

- Kd [1]: 600 nM
- Kd [2]: 5.2 µM
- Kd [3]: > 20 µM
- Kd [4]: 2200 nM
- Kd [5]: > 40 µM
B1: BODIPY-FL-labeled C51A/E107C EcSufE (natural protein, Escherichia coli)
chain: MALLPDKEKLLRNFLRCANWEEKYLYIIELGQRLPELRDEDRSPQNSIQGAQSQVWIVMRQNAQGIIELQGDSDAAIVKGLIAVVFILYDQMTPQDIVNFDVRPWFCKMALTQHLTPSRSQGLEAMIRAIRAKAAALS
modifications: BODIPY-FL maleimide label (labeling efficiency 60 to 80%)
notes: EcSufE, transpersulfurase SufE of Escherichia coli, UniProt P76194, with C51A and E107C; also called "WT" EcSufE (double mutant background); C51A/E107C EcSufE control
